Kd, koff and kon data for two molecules are collected here from paper PMC9463536 (The Journal of Biological Chemistry, 2022).

In general, Kd refers to the equilibrium constant for the complex coming apart. Usually koff stands for a measure of how fast the partners let go of each other. The term kon denotes the second-order rate constant of association. Low readings indicate slower complex formation, high ones faster complex formation.

The target in the experiment is biotinylated claudin-4–cCpE^1 complex (Homo sapiens claudin-4; Clostridium …, UniProt O14493;P01558, biotin (NHS-PEG4-biotin; sites not stated)). In words: BLI. Particulars: both partners purified.
Chain of biotinylated claudin-4–cCpE^1 complex (O14493 whole entry, chain 1 of 2): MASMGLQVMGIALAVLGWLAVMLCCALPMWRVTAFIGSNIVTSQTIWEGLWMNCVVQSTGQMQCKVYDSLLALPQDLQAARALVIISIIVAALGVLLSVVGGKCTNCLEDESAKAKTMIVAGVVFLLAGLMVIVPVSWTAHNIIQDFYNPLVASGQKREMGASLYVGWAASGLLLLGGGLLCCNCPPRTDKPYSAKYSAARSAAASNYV
Chain of biotinylated claudin-4–cCpE^1 complex (P01558 197-319, chain 2 of 2): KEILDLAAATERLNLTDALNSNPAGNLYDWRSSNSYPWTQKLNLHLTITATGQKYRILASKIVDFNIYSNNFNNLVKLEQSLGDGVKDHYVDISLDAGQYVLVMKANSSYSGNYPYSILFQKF

B1: COP-3 (CpE Obstructing Protein 3), synthetic antigen-binding fragment (Fab, V domains shown)
VH: EVQLVESGGGLVQPGGSLRLSCAASGFNFYSSSIHWVRQAPGKGLEWVAYISSYSGYTYYADSVKGRFTISADTSKNTAYLQMNSLRAEDTAVYYCARGYGYFDYNFSVGYALDYWGQGTLVTVSS
VL: DIQMTQSPSSLSASVGDRVTITCRASQSVSSAVAWYQQKPGKAPKLLIYSASSLYSGVPSRFSGSRSGTDFTLTISSLQPEDFATYYCQQSHPWYYPITFGQGTKVEIK
notes: also called sFab; source: E. coli BL21-Gold, purified (MabSelect SuRe, Resource S)
For the molecule B1, binding was characterised by a dissociation constant (Kd) of 200 ± 5.5 nM, the koff was determined as 0.0039 s⁻¹ and the kon is 19000 M⁻¹ s⁻¹.

B2: COP-2 (CpE Obstructing Protein 2), synthetic antigen-binding fragment (Fab, V domains shown)
VH: EVQLVESGGGLVQPGGSLRLSCAASGFNFSSSSIHWVRQAPGKGLEWVASISSYSGYTSYADSVKGRFTISADTSKNTAYLQMNSLRAEDTAVYYCARYWSWYNSSHYIYSALDYWGQGTLVTVSS
VL: DIQMTQSPSSLSASVGDRVTITCRASQSVSSAVAWYQQKPGKAPKLLIYSASSLYSGVPSRFSGSRSGTDFTLTISSLQPEDFATYYCQQSYEWAPVTFGQGTKVEIK
notes: as for B1
For B2, binding was put at a Kd of 161.3 ± 0.6 nM, the off-rate (koff) amounted to 0.0012 s⁻¹ and the kon worked out at 7700 M⁻¹ s⁻¹.
